# Measured values as given in patent US12319925B2, “Methods and compositions for genomic integration” (Myeloid Therapeutics, Inc., priority 2021, dated 2025).
# Test system: THP-1 cells
# Assay: Integration and expression of HER2 binder-T2A-GFP cargo after LINE-1 plasmid electroporation
# Assay type: cell-based
# Conditions: 3.7 kb cargo, day 6 post transfection, FIG. 18B
# Source text: Next, THP-1 cells (a myeloid, monocytic cell line) were electroporated with a plasmid having LINE-1 sequences and a 3.7 kb cargo encoding a chimeric HER-2 binding receptor, and a split GFP (LINE-1 plasmid Her2-Cd3z-T2A-GFPintron) (FIG. 18A). The cargo is a chimeric receptor that comprises a HER2 binding extracellular domain, a CD3z transmembrane domain, and split GFP reporter. […] Moreover, unlike CRISPR dependent technologies such as Prime editing, retrotransposition can result in integration of large genetic cargo, and, these can be delivered as a single nucleic acid construct.
molecule,measurement,value
LINE-1 plasmid Her2-Cd3z-T2A-GFPintron: LINE-1 plasmid with cargo encoding chimeric HER-2 binding receptor and split GFP (SEQ ID NO: 41) (nucleic acid) DNA: CGGCCGCGGGGGGAGGAGCCAAGATGGCCGAATAGGAACAGCTCCGGTCTACAGCTCCCAGCGTGAGCGACGCAGAAGACGGTGATTTCTGCATTTCCATCTGAGGTACCGGGTTCATCTCACTAGGGAGTGCCAGACAGTGGGCGCAGGCCAGTGTGTGTGCGCACCGTGCGCGAGCCGAAGCAGGGCGAGGCATTGCCTCACCTGGGAAGCGCAAGGGGTCAGGGAGTTCCCTTTCCGAGTCAAAGAAAGGGGTGACGGACGCACCTGGAAAATCGGGTCACTCCCACCCGAATATTGCGCTTTTCAGACCGGCTTAAGAAACGGCGCACCACGAGACTATATCCCACACCTGGCTCGGAGGGTCCTACGCCCACGGAATCTCGCTGATTGCTAGCACAGCAGTCTGAGATCAAACTGCAAGGCGGCAACGAGGCTGGGGGAGGGGCGCCCGCCATTGCCCAGGCTTGCTTAGGTAAACAAAGCAGCAGGGAAGCTCGAACTGGGTGGAGCCCACCACAGCTCAAGGAGGCCTGCCTGCCTCTGTAGGCTCCACCTCTGGGGGCAGGGCACAGACAAACAAAAAGACAGCAGTAACCTCTGCAGACTTAAGTGTCCCTGTCTGACAGCTTTGAAGAGAGCAGTGGTTCTCCCAGCACGCAGCTGGAGATCTGAGAACGGGCAGACTGCCTCCTCAAGTGGGTCCCTGACCCCTGACCCCCGAGCAGCCTAACTGGGAGGCACCCCCCAGCAGGGGCACACTGACACCTCACACGGCAGGGTATTCCAACAGACCTGCAGCTGAGGGTCCTGTCTGTTAGAAGGAAAACTAACAACCAGAAAGGACATCTACACCGAAAACCCATCTGTACATCACCATCATCAAAGACCAAAAGTAGATAAAACCACAAAGATGGGGAAAAAACAGAACAGAAAAACTGGAAACTCTAAAACGCAGAGCGCCTCTCCTCCTCCAAAGGAACGCAGTTCCTCACCAGCAACAGAACAAAGCTGGATGGAGAATGATTTTGATGAGCTGAGAGAAGAAGGCTTCAGACGATCAAATTACTCTGAGCTACGGGAGGACATTCAAACCAAAGGCAAAGAAGTTGAAAACTTTGAAAAAAATTTAGAAGAATGTATAACTAGAATAACCAATACAGAGAAGTGCTTAAAGGAGCTGATGGAGCTGAAAACCAAGGCTCGAGAACTACGTGAAGAATGCAGAAGCCTCAGGAGCCGATGCGATCAACTGGAAGAAAGGGTATCAGCAATGGAAGATGAAATGAATGAAATGAAGCGAGAAGGGAAGTTTAGAGAAAAAAGAATAAAAAGAAATGAGCAAAGCCTCCAAGAAATATGGGACTATGTGAAAAGACCAAATCTACGTCTGATTGGTGTACCTGAAAG,genomic integration and expression of cargo,successfully integrated into the genome and showed prolonged expression
